# Data from patent US20220306753A1 (JN BIOSCIENCES, published 2022).
# T1: Human B7-2/CD86 Protein, Fc Tag (human, UniProt P42081 24-247)
# T1 construct: Bought protein coated on the ELISA plate; also called Cat. No. CD6-H5257, Acro Biosystems; not shown: Fc tag of the bought protein
# T1 sequence (looked up): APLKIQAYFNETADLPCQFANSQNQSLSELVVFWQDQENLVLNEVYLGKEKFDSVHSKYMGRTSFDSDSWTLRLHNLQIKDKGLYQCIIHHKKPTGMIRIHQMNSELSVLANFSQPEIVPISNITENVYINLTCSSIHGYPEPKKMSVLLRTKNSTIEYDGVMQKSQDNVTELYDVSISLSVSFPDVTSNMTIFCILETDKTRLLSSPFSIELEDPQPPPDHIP
# T2: Human IL-2R beta/CD122 Protein, Fc Tag (human, UniProt P14784 27-239)
# T2 construct: Bought protein coated on the ELISA plate; also called Cat. No. ILB-H5253, Acro Biosystems; not shown: Fc tag of the bought protein
# T2 sequence (looked up): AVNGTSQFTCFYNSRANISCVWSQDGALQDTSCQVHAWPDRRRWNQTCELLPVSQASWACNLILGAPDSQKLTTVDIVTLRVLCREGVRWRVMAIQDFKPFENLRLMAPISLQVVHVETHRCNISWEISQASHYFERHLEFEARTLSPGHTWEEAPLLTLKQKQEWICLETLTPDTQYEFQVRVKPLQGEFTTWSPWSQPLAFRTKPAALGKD
# T3: Human B7-1/CD80 Protein, Mouse IgG2a Tag (human, UniProt P33681 35-242)
# T3 construct: Bought protein coated on the ELISA plate; also called Cat. No. B71-H52A4, Acro Biosystems; not shown: mouse IgG2a tag of the bought protein
# T3 sequence (looked up): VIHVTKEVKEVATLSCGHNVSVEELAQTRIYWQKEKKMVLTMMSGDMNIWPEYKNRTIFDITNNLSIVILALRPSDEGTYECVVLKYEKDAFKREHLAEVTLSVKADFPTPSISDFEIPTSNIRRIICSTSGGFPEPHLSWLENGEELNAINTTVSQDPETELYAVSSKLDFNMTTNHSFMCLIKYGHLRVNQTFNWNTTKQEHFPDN
# B1: HuABC2 (antibody, human IgG1, kappa, V domains shown)
# VH: EVQLVESGGGLVQPGGSLRLSCAASGFTFSDFYMEWVRQAPGKGLEWIAASRNKANDYTTEYSASVKGRFIVSRDDSKNSLYLQMNSLKTEDTAVYYCARSYYRYDGMDYWGQGTTVTVSS
# VL: EIVLTQSPATLSLSPGERATLSCSAISSVSYMYWYQQKPGQAPRLLIYDTSNLVSGVPARFSGSGSGTDYTLTISSLEPEDFAVYYCQQWNTYPYTFGGGTKVEIKR
# notes: Human IgG1/kappa, wild-type Fc, expressed from pHuABC2p in CHO-K1 and purified on protein A; also called humanized anti-CD122 IgG1/kappa monoclonal antibody
# Columns and labels:
# [1] = molecular target: T1, Human B7-2/CD86 Protein, Fc Tag; experiment: ELISA, plate coated with 1 µg/ml CD86 Fc tag protein, anti-human kappa-HRP detection
# Method: (§1) Binding of HuABC2-CTLA4 and HuABC2-CTLA4YE to human CD122, CD80 and CD86 was analyzed by ELISA. Wells of an ELISA plate were coated with 1 μg/ml of either CD122 (Human IL-2R beta/CD122 Protein, Fc Tag; Cat. No. ILB-H5253, Acro Biosystems, Newark, Del.), CD80 (Human B7-1/CD80 Protein, Mouse IgG2a Tag; Cat. No. B71-H52A4, Acro Biosystems) or CD86 (Human B7-2/CD86 Protein, Fc Tag; Cat. No. CD6-H5257, Acro Biosystems) in PBS. After blocking with Blocking Buffer and washing the wells with Wash Buffer, transiently expressed HuABC2-CTLA4 and HuABC2-CTLA4YE at 0.5 μg/ml and serial 2-fold dilutions in ELISA Buffer were applied to the wells in duplicates. Purified HuABC2 at 0.5 μg/mland serial 2-fold dilutions was used as a control. After incubation for 1 hr at room temperature and washing with Wash Buffer, bound antibodies were detected using HRP-conjugated goat anti-human kappa chain polyclonal antibody. After incubation for 30 min and washing with Wash Buffer, color development was initiated by adding ABTS substrate and stopped with 2% oxalic acid. Absorbance was read at 405 nm.
# [2] = molecular target: T2, Human IL-2R beta/CD122 Protein, Fc Tag; experiment: ELISA, plate coated with 1 µg/ml CD122 Fc tag protein, binder from 0.5 µg/ml in 2-fold dilutions, anti-human kappa-HRP
# Method: as §1
# [3] = molecular target: T3, Human B7-1/CD80 Protein, Mouse IgG2a Tag; experiment: ELISA, plate coated with 1 µg/ml CD80 mouse IgG2a tag protein, anti-human kappa-HRP detection
# Method: as §1
binder,measurement,setting,value
B1,binding result,[1],no binding (tested: 0.5 µg/ml and serial 2-fold dilutions)
same,binding result,[2],binds
same,binding result,[3],no binding (tested: 0.5 µg/ml and serial 2-fold dilutions)
